We go through two molecules from patent US20230106083A1, “SILICON-FLUORIDE HETEROAROMATIC SYSTEMS FOR APPLICATIONS IN POSITRON EMISSION TOMOGRAPHY (PET) MOLECULAR IMAGING” (The Regents of the University of California, priority 2019, published 2023).

Data set [1] can be described thus: Stability screen of HetSiFA [^18F]-12 in acetonitrile (RCC by radio-TLC over time). The class given is physicochemical. The conditions noted are these: room temperature, 1.8 mg (9.4 μmol) Et4NHCO3 used for elution. How it is done: Isotopic exchange reactions were conducted in 1 mL Eppendorf tube containing hetroarylfluorosilanes 1 in dry acetonitrile (3 mM stock solution, 50 μL). […] An aliquot of the crude reaction mixture was spotted on a silica gel coated TLC plate, developed in a glass chamber using [^18F]fluoride Het Si tBu tBu F Het Si tBu tBu ^18F Et4NHCO3 CH3CN, 23° C. 1 [^18F]-1 S15 acetonitrile (100%) or acetonitrile:water (95:5) as the eluent and analyzed by radio-TLC using a miniGITA*TLC scanner. The radiochemical conversion (RCC) was calculated by dividing the integrated area of the ^18F-fluorinated product peak by the total integrated area of all peaks on the TLC and multiplying by 100 to convert to percentage units. Isotopic exchange and purity was confirmed by analytical HPLC by co-injecting with the 19F-reference standard (UV absorbance at 254 nm). An aliquot of the crude reaction mixture (10 μL) was added to the 19F-reference standard (1 mg/mL) in acetonitrile (10 μL) and the sample was injected into the analytical HPLC.
[^18F]TEAF was obtained by eluting fluoride ion with high base or low base, following the protocol described above.

Data set [2] is described as follows: MicroPET/CT biodistribution of [^18F]-17 in normal mice (ROI quantification). It counts as in vivo, C57BL6 mice. The conditions noted are these: for tissue uptake at 1 h / tissue uptake at 2 h: C57BL/6, mouse; for tissue uptake at 2 h: 2 h post-injection. How it is done: Micropositron emission tomography-computed tomography (microPET/CT) imaging studies were performed in normal mice to investigate the in vivo stability of the silicon-fluorine bond in the Heteroaromatic silicon fluoride acceptor peptide conjugate, [^18F]-17. Reformulated [^18F]-17 (2.2 MBq) was injected via the tail vein into C57BL/6 mice (n=3), and microPET/CT scans were acquired. […] Alternatively, the GI activity may also be a result of this particular peptide, for which the full cholecystokinin construct plays important roles in stimulating digestion within the GI system.
Animal studies were approved by the UCLA Animal Research Committee and carried out according to the guidelines of the Department of Laboratory Animal Medicine at UCLA. Female C57BL6 mice were injected intravenously via tail vein with approximately 2.2 MBq (60 μCi) of [^18F]-17. Animals were kept warm on heating pads throughout the imaging procedures. At 1 and 2 h after tracer injection, mice were anesthetized with 2% isoflurane in oxygen and placed in dedicated Genisys8 imaging chambers for PET/CT imaging on the Genisys8 PET/CT (Sofie Biosciences). PET scans were acquired for 10 min with an energy window of 150-650 keV reconstructed using ML-EM, followed by CT acquisition. All PET images were corrected for CTbased photon attenuation, detector normalization and radioisotope decay (scatter correction was not applied) and converted to units of percent injected dose per gram (% ID/g). Images were analyzed by drawing regions-of-interest (ROI) in select tissues using AMIDE v1.0.5. See e.g. Loening et al., Mol. Imaging 2003, 3, 131.

Molecules are shown by their SMILES. Like-named read-outs stand apart in the source and are kept apart here.

Regarding `CC(C)(C)[Si](F)(c1cc2cccc(C(=O)O)c2s1)C(C)(C)C` [[^18F]-12, 2-(di-tertbutylfluorosilyl) benzo[b]thiophene-7-carboxylic acid], the “RCC (stability screen)” value in data set [1] (2 min) is 95%; in data set [1] (5 min), 96%; in data set [1] (15 min), 97%; in data set [1] (30 min), 97%; in data set [1] (60 min), 97%.
As for `CSCC[C@H](NC(=O)[C@H](Cc1c[nH]c2ccccc12)NC(=O)CN1CCN(CC(=O)O)CCN(CC(=O)O)CCN(CC(=O)O)CC1)C(=O)N[C@@H](CC(=O)NCCOCCOCCOCCNC(=O)c1cccc2cc([Si](F)(C(C)(C)C)C(C)(C)C)sc12)C(=O)N[C@@H](Cc1ccccc1)C(N)=O` [[^18F]-17], in data set [2] (PET quantification, 1 h post-injection, i.v. tail vein, C57BL6 mice), the “Biodistribution, Muscle” value stood at 0.36 % ID/g. Moreover, the tissue uptake at 1 h came to 107 ± 24 %ID/g in data set [2] (female, GI tract, iv, 2.2 MBq, total radioactivity, PET quantification, 1 h post-injection, i.v. tail vein, C57BL6 mice, read-out: Biodistribution, GI); 35 ± 12 %ID/g in data set [2] (female, bladder, iv, 2.2 MBq, total radioactivity, PET quantification, 1 h post-injection, i.v. tail vein, C57BL6 mice, read-out: Biodistribution, Bladder); 8 ± 0.65 %ID/g in data set [2] (female, bone (knee), iv, 2.2 MBq, total radioactivity, PET quantification, 1 h post-injection, i.v. tail vein, C57BL6 mice, read-out: Biodistribution, Bone (knee)); 0.44 ± 0.06 %ID/g in data set [2] (female, brain, iv, 2.2 MBq, total radioactivity, PET quantification, 1 h post-injection, i.v. tail vein, C57BL6 mice, read-out: Biodistribution, Brain); 33 ± 14 %ID/g in data set [2] (female, gallbladder, iv, 2.2 MBq, total radioactivity, PET quantification, 1 h post-injection, i.v. tail vein, C57BL6 mice, read-out: Biodistribution, Gallbladder); 2 ± 0.25 %ID/g in data set [2] (female, heart, iv, 2.2 MBq, total radioactivity, PET quantification, 1 h post-injection, i.v. tail vein, C57BL6 mice, read-out: Biodistribution, Heart). Also, the tissue uptake at 1 h was 2.9 ± 0.62 %ID/g in data set [2] (female, kidney, iv, 2.2 MBq, total radioactivity, PET quantification, 1 h post-injection, i.v. tail vein, C57BL6 mice, read-out: Biodistribution, Kidney); 5 ± 0.07 %ID/g in data set [2] (female, liver, iv, 2.2 MBq, total radioactivity, PET quantification, 1 h post-injection, i.v. tail vein, C57BL6 mice, read-out: Biodistribution, Liver); 0.36 ± 0.06 %ID/g in data set [2] (female, muscle, iv, 2.2 MBq, total radioactivity, PET quantification, 1 h post-injection, i.v. tail vein, C57BL6 mice, read-out: Biodistribution, Muscle). For the same molecule, the tissue uptake at 2 h turned out to be 122 ± 48 %ID/g in data set [2] (female, GI tract, iv, 2.2 MBq, total radioactivity, PET quantification, i.v. tail vein, C57BL6 mice, read-out: Biodistribution, GI); 30 ± 7 %ID/g in data set [2] (female, bladder, iv, 2.2 MBq, total radioactivity, PET quantification, i.v. tail vein, C57BL6 mice, read-out: Biodistribution, Bladder); 8.2 ± 0.56 %ID/g in data set [2] (female, bone (knee), iv, 2.2 MBq, total radioactivity, PET quantification, i.v. tail vein, C57BL6 mice, read-out: Biodistribution, Bone (knee)); 0.33 ± 0.03 %ID/g in data set [2] (female, brain, iv, 2.2 MBq, total radioactivity, PET quantification, i.v. tail vein, C57BL6 mice, read-out: Biodistribution, Brain); 28 ± 9 %ID/g in data set [2] (female, gallbladder, iv, 2.2 MBq, total radioactivity, PET quantification, i.v. tail vein, C57BL6 mice, read-out: Biodistribution, Gallbladder); 1.2 ± 0.26 %ID/g in data set [2] (female, heart, iv, 2.2 MBq, total radioactivity, PET quantification, i.v. tail vein, C57BL6 mice, read-out: Biodistribution, Heart). For the same molecule, the tissue uptake at 2 h came to 2.2 ± 0.38 %ID/g in data set [2] (female, kidney, iv, 2.2 MBq, total radioactivity, PET quantification, i.v. tail vein, C57BL6 mice, read-out: Biodistribution, Kidney); 2.4 ± 0.47 %ID/g in data set [2] (female, liver, iv, 2.2 MBq, total radioactivity, PET quantification, i.v. tail vein, C57BL6 mice, read-out: Biodistribution, Liver); 0.27 ± 0.11 %ID/g in data set [2] (female, muscle, iv, 2.2 MBq, total radioactivity, PET quantification, i.v. tail vein, C57BL6 mice, read-out: Biodistribution, Muscle). For the same molecule, the tissue uptake in data set [2] (female, mouse, bone, iv, 2.2 MBq, total radioactivity, FIG. 6, time not given, C57BL/6 mice) came to 8 %ID/g. Further, the clearance route entry in data set [2] (microPET/CT images, C57BL/6 mice, 2.2 MBq via tail vein) was “initial clearance of [^18F]-17 via the kidneys, followed by the reabsorption of radiometabolites and the subsequent hepatobiliary clearance”. The plasma clearance entry in data set [2] (microPET/CT, C57BL/6 mice, 2.2 MBq via tail vein) was “rapid plasma clearance”.
